We go through one molecule from patent publication KR20180079232A (dated 2018).

The target in this assay is T1, L1CAM (L1 cell adhesion molecule, CD171), human (human, UniProt P32004 20-1257).
T1 construct: whole, on cells; The target sat on L1CAM-expressing cells (SCK-L1, Choi-CK, TFK-1); For the western blots it was the membrane protein fraction of those cells after SDS-PAGE; also called 막 L1CAM; membrane L1CAM
As to the kind of experiment: confocal microscopy of L1CAM-expressing cells treated with Ab417 (10 ㎍/mL); surface-bound antibody detected with anti-human IgG.

T1 sequence (P32004 20-1257): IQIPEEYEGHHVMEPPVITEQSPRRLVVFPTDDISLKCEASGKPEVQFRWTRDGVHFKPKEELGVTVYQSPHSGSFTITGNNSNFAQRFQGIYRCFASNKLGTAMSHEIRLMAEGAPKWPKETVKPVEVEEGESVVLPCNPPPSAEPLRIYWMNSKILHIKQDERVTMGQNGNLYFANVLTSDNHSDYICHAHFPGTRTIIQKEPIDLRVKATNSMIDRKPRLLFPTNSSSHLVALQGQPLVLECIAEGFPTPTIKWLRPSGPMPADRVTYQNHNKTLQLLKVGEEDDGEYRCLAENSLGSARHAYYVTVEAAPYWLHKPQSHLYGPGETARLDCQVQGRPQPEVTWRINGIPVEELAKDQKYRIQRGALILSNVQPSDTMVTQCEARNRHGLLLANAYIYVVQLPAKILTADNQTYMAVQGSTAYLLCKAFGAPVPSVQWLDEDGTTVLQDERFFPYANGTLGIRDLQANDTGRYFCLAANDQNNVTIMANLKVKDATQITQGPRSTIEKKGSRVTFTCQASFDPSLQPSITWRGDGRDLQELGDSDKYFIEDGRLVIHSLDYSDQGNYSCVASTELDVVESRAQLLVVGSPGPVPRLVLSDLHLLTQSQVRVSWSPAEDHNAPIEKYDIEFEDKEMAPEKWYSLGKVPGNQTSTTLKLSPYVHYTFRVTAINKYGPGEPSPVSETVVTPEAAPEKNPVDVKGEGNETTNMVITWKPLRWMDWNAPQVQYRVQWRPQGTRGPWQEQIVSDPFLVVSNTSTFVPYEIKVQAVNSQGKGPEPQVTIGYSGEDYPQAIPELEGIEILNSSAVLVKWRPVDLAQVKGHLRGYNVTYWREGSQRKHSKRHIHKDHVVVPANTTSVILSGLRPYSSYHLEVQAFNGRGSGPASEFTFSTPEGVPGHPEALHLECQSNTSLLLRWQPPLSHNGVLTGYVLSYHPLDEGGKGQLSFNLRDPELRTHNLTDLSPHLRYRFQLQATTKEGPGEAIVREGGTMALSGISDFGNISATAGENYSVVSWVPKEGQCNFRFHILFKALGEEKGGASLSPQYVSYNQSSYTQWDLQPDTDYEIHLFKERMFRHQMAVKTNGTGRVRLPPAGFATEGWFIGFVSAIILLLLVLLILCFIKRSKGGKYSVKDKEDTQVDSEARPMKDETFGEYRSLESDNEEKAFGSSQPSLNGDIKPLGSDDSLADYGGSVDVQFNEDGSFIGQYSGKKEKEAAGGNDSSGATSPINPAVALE

B1: Ab417 항체 (anti-L1CAM antibody Ab417) (antibody, V domains shown)
VH: EVQLVESGGGVVQPGRSLRLSCAASGFTFSRFGMHWVRQAPGKGLEWVAFISNDGSNKYYADSVKGRFTISRDNSKNTLYLQMNSLRPEDTAVYYCARGRAYGSGSLFDPWGQGTLVTVSS
VL: DIQLTQSPSSLSASVGDRVTITCRASRTISIYVNWYRQRPGKAPESLIYAASNLHSGVPSRFSGSGSGTDFTLTISSLQPEDFATYYCQQSIGRGVVTFGQGTKLEIK
notes: It is a whole antibody made in CHO-DG44 cell line #9-20 and purified on protein A. It was detected with anti-human IgG (H+L) and anti-human IgG (Fc-specific)
As for B1, the binding result is given as “binds”.
